B1: Unconventional myosin-Ic (Homo sapiens), O00159-2 (parent)
chain: MESALTARDRVGVQDFVLLENFTSEAAFIENLRRRFRENLIYTYIGPVLVSVNPYRDLQIYSRQHMERYRGVSFYEVPPHLFAVADTVYRALRTERRDQAVMISGESGAGKTEATKRLLQFYAETCPAPERGGAVRDRLLQSNPVLEAFGNAKTLRNDNSSRFGKYMDVQFDFKGAPVGGHILSYLLEKSRVVHQNHGERNFHIFYQLLEGGEEETLRRLGLERNPQSYLYLVKGQCAKVSSINDKSDWKVVRKALTVIDFTEDEVEDLLSIVASVLHLGNIHFAANEESNAQVTTENQLKYLTRLLSVEGSTLREALTHRKIIAKGEELLSPLNLEQAAYARDALAKAVYSRTFTWLVGKINRSLASKDVESPSWRSTTVLGLLDIYGFEVFQHNSFEQFCINYCNEKLQQLFIELTLKSEQEEYEAEGIAWEPVQYFNNKIICDLVEEKFKGIISILDEECLRPGEATDLTFLEKLEDTVKHHPHFLTHKLADQRTRKSLGRGEFRLLHYAGEVTYSVTGFLDKNNDLLFRNLKETMCSSKNPIMSQCFDRSELSDKKRPETVATQFKMSLLQLVEILQSKEPAYVRCIKPNDAKQPGRFDEVLIRHQVKYLGLLENLRVRRAGFAYRRKYEAFLQRYKSLCPETWPTWAGRPQDGVAVLVRHLGYKPEEYKMGRTKIFIRFPKTLFATEDALEVRRQSLATKIQAAWRGFHWRQKFLRVKRSAICIQSWWRGTLGRRKAAKRKWAAQTIRRLIRGFVLRHAPRCPENAFFLDHVRTSFLLNLRRQLPQNVLDTSWPTPPPALREASELLRELCIKNMVWKYCRSISPEWKQQLQQKAVASEIFKGKKDNYPQSVPRLFISTRLGTDEISPRVLQALGSEPIQYAVPVVKYDRKGYKPRSRQLLLTPNAVVIVEDAKVKQRIDYANLTGISVSSLSDSLFVLHVQRADNKQKGDVVLQSDHVIETLTKTALSANRVNSININQGSITFAGGPGRDGTIDFTPGSELLITKAKNGHLAVVAPRLNSR

Variants of: B1
Details: with 1433b_human YWHAB

Variant	effect of a mutation on the interaction
S701A	disrupting interaction strength
S701E	increasing interaction strength

— IntAct's records for PubMed 24636949
